Laboratory results as given in the supplement of paper PMC11316812.
± gives the standard deviation of the averaged measurements.

How the values were obtained:
MCF7 = assay: percentage of EdU-negative (G0-arrested) nuclei per well, 72 h; higher = more G0 arrest; settings: reference: sequence is the full UniProt precursor, the tested protein was the secreted form or ectodomain
hTERT-HMEC = assay: as above; settings: reference: sequence is the full UniProt precursor, the tested protein was the secreted form or ectodomain
[1] = protein concentration 0.0197775 µM
[2] = protein concentration 0.197775 µM
[3] = protein concentration 0.0255 µM
[4] = protein concentration 0.03125 µM
[5] = protein concentration 0.3125 µM
[6] = protein concentration 0.0257143 µM
[7] = protein concentration 0.257143 µM
[8] = protein concentration 0.0225 µM
[9] = protein concentration 0.0357143 µM
[10] = protein concentration 0.357143 µM
[11] = protein concentration 0.0308875 µM
[12] = protein concentration 0.308875 µM
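Note: secreted proteins added to cultured cells, EdU pulse at the end, nuclei found by Hoechst imaging, EdU status from nuclear versus surrounding ring intensity ratio, PBS as neutral control.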

## MALLWGLLVLSWSCLQGPCSVFSPVSAMEPLGRQLTSGPNQEQVSPLTLLKLGNQEPGGQTALKSPPGVCSRDPTPEQTHRLARAMMAFTADLFSLVAQTSTCPNLILSPLSVALALSHLALGAQNHTLQRLQQVLHAGSGPCLPHLLSRLCQDLGPGAFRLAARMYLQKGFPIKEDFLEQSEQLFGAKPVSLTGKQEDDLANINQWVKEATEGKIQEFLSGLPEDTVLLLLNAIHFQGFWRNKFDPSLTQRDSFHLDEQFTVPVEMMQARTYPLRWFLLEQPEIQVAHFPFKNNMSFVVLVPTHFEWNVSQVLANLSWDTLHPPLVWERPTKVRLPKLYLKHQMDLVATLSQLGLQELFQAPDLRGISEQSLVVSGVQHQSTLELSEVGVEAAAATSIAMSRMSLSSFSVNRPFLFFIFEDTTGLPLFVGSVRNPNPSAPRELKEQQDSPGNKDFLQSLKGFPRGDKLFGPDLKLVPPMEEDYPQFGSPK
MCF7; [1]
  percentage of EdU-negative: 24.1 ± 0.71%
MCF7; [2]
  percentage of EdU-negative: 29.1 ± 1.3%
hTERT-HMEC; [1]
  percentage of EdU-negative: 4.44 ± 1.1%
hTERT-HMEC; [2]
  percentage of EdU-negative: 10.5 ± 1%

## MALPFALLMALVVLSCKSSCSLDCDLPQTHSLGHRRTMMLLAQMRRISLFSCLKDRHDFRFPQEEFDGNQFQKAEAISVLHEVIQQTFNLFSTKDSSVAWDERLLDKLYTELYQQLNDLEACVMQEVWVGGTPLMNEDSILAVRKYFQRITLYLTEKKYSPCAWEVVRAEIMRSFSSSRNLQERLRRKE
MCF7; [3]
  percentage of EdU-negative: 48.4 ± 2.7%
MCF7; protein concentration 0.255 µM
  percentage of EdU-negative: 49.64 ± 0.2%
hTERT-HMEC; [3]
  percentage of EdU-negative: 15.8 ± 6.2%
hTERT-HMEC; protein concentration 0.255 µM
  percentage of EdU-negative: 27.4 ± 0.99%

## MALPFALMMALVVLSCKSSCSLGCNLSQTHSLNNRRTLMLMAQMRRISPFSCLKDRHDFEFPQEEFDGNQFQKAQAISVLHEMMQQTFNLFSTKNSSAAWDETLLEKFYIELFQQMNDLEACVIQEVGVEETPLMNEDSILAVKKYFQRITLYLMEKKYSPCAWEVVRAEIMRSLSFSTNLQKRLRRKD
MCF7; protein concentration 0.03 µM
  percentage of EdU-negative: 49.17 ± 0.42%
MCF7; protein concentration 0.3 µM
  percentage of EdU-negative: 48.8 ± 4.3%
hTERT-HMEC; protein concentration 0.03 µM
  percentage of EdU-negative: 21.5 ± 5.7%
hTERT-HMEC; protein concentration 0.3 µM
  percentage of EdU-negative: 34.2 ± 2.4%

## MALPFVLLMALVVLNCKSICSLGCDLPQTHSLSNRRTLMIMAQMGRISPFSCLKDRHDFGFPQEEFDGNQFQKAQAISVLHEMIQQTFNLFSTKDSSATWDETLLDKFYTELYQQLNDLEACMMQEVGVEDTPLMNVDSILTVRKYFQRITLYLTEKKYSPCAWEVVRAEIMRSFSLSANLQERLRRKE
MCF7; [4]
  percentage of EdU-negative: 45.45 ± 0.21%
MCF7; [5]
  percentage of EdU-negative: 48.29 ± 0.24%
hTERT-HMEC; [4]
  percentage of EdU-negative: 22.9 ± 1.4%
hTERT-HMEC; [5]
  percentage of EdU-negative: 28.6 ± 0.61%

## MALPRCTWPNYVWRAVMACLVHRGLGAPLTLCMLGCLLQAGHVLSQKLDDVDPLVATNFGKIRGIKKELNNEILGPVIQFLGVPYAAPPTGERRFQPPEPPSPWSDIRNATQFAPVCPQNIIDGRLPEVMLPVWFTNNLDVVSSYVQDQSEDCLYLNIYVPTEDVKRISKECARKPGKKICRKGGPLTKKQTDDLGDNDGAEDEDIRDSGGPKPVMVYIHGGSYMEGTGNLYDGSVLASYGNVIVITVNYRLGVLGFLSTGDQAAKGNYGLLDLIQALRWTSENIGFFGGDPLRITVFGSGAGGSCVNLLTLSHYSEGNRWSNSTKGLFQRAIAQSGTALSSWAVSFQPAKYARMLATKVGCNVSDTVELVECLQKKPYKELVDQDIQPARYHIAFGPVIDGDVIPDDPQILMEQGEFLNYDIMLGVNQGEGLKFVENIVDSDDGISASDFDFAVSNFVDNLYGYPEGKDVLRETIKFMYTDWADRHNPETRRKTLLALFTDHQWVAPAVATADLHSNFGSPTYFYAFYHHCQTDQVPAWADAAHGDEVPYVLGIPMIGPTELFPCNFSKNDVMLSAVVMTYWTNFAKTGDPNQPVPQDTKFIHTKPNRFEEVAWTRYSQKDQLYLHIGLKPRVKEHYRANKVNLWLELVPHLHNLNDISQYTSTTTKVPSTDITFRPTRKNSVPVTSAFPTAKQDDPKQQPSPFSVDQRDYSTELSVTIAVGASLLFLNILAFAALYYKKDKRRHDVHRRCSPQRTTTNDLTHAQEEEIMSLQMKHTDLDHECESIHPHEVVLRTACPPDYTLAMRRSPDDVPLMTPNTITMIPNTIPGIQPLHTFNTFTGGQNNTLPHPHPHPHSHSTTRV [Q8N2Q7]
MCF7; [6]
  percentage of EdU-negative: 23.1 ± 1.3%
MCF7; [7]
  percentage of EdU-negative: 22.8 ± 3.5%
hTERT-HMEC; [6]
  percentage of EdU-negative: 4.75 ± 0.6%
hTERT-HMEC; [7]
  percentage of EdU-negative: 5.43 ± 0.056%

## MALPSLLLLVAALAGGVRPPGARNLTLAVVLPEHNLSYAWAWPRVGPAVALAVEALGRALPVDLRFVSSELEGACSEYLAPLSAVDLKLYHDPDLLLGPGCVYPAASVARFASHWRLPLLTAGAVASGFSAKNDHYRTLVRTGPSAPKLGEFVVTLHGHFNWTARAALLYLDARTDDRPHYFTIEGVFEALQGSNLSVQHQVYAREPGGPEQATHFIRANGRIVYICGPLEMLHEILLQAQRENLTNGDYVFFYLDVFGESLRAGPTRATGRPWQDNRTREQAQALREAFQTVLVITYREPPNPEYQEFQNRLLIRAREDFGVELGPSLMNLIAGCFYDGILLYAEVLNETIQEGGTREDGLRIVEKMQGRRYHGVTGLVVMDKNNDRETDFVLWAMGDLDSGDFQPAAHYSGAEKQIWWTGRPIPWVKGAPPSDNPPCAFDLDDPSCDKTPLSTLAIVALGTGITFIMFGVSSFLIFRKLMLEKELASMLWRIRWEELQFGNSERYHKGAGSRLTLSLRGSSYGSLMTAHGKYQIFANTGHFKGNVVAIKHVNKKRIELTRQVLFELKHMRDVQFNHLTRFIGACIDPPNICIVTEYCPRGSLQDILENDSINLDWMFRYSLINDLVKGMAFLHNSIISSHGSLKSSNCVVDSRFVLKITDYGLASFRSTAEPDDSHALYAKKLWTAPELLSGNPLPTTGMQKADVYSFGIILQEIALRSGPFYLEGLDLSPKEIVQKVRNGQRPYFRPSIDRTQLNEELVLLMERCWAQDPAERPDFGQIKGFIRRFNKEGGTSILDNLLLRMEQYANNLEKLVEERTQAYLEEKRKAEALLYQILPHSVAEQLKRGETVQAEAFDSVTIYFSDIVGFTALSAESTPMQVVTLLNDLYTCFDAIIDNFDVYKVETIGDAYMVVSGLPGRNGQRHAPEIARMALALLDAVSSFRIRHRPHDQLRLRIGVHTGPVCAGVVGLKMPRYCLFGDTVNTASRMESNGQALKIHVSSTTKDALDELGCFQLELRGDVEMKGKGKMRTYWLLGERKGPPGLL
MCF7; [8]
  percentage of EdU-negative: 28 ± 1%
MCF7; protein concentration 0.225 µM
  percentage of EdU-negative: 28.8 ± 1.5%
hTERT-HMEC; [8]
  percentage of EdU-negative: 4.62 ± 0.46%
hTERT-HMEC; protein concentration 0.225 µM
  percentage of EdU-negative: 6.68 ± 1.3%

## MALPSRILLWKLVLLQSSAVLLHSGSSVPAAAGSSVVSESAVSWEAGARAVLRCQSPRMVWTQDRLHDRQRVLHWDLRGPGGGPARRLLDLYSAGEQRVYEARDRGRLELSASAFDDGNFSLLIRAVEETDAGLYTCNLHHHYCHLYESLAVRLEVTDGPPATPAYWDGEKEVLAVARGAPALLTCVNRGHVWTDRHVEEAQQVVHWDRQPPGVPHDRADRLLDLYASGERRAYGPLFLRDRVAVGADAFERGDFSLRIEPLEVADEGTYSCHLHHHYCGLHERRVFHLTVAEPHAEPPPRGSPGNGSSHSGAPGPDPTLARGHNVINVIVPESRAHFFQQLGYVLATLLLFILLLVTVLLAARRRRGGYEYSDQKSGKSKGKDVNLAEFAVAAGDQMLYRSEDIQLDYKNNILKERAELAHSPLPAKYIDLDKGFRKENCK [Q9BRK3]
MCF7; [9]
  percentage of EdU-negative: 23.2 ± 2.3%
MCF7; [10]
  percentage of EdU-negative: 25 ± 0.57%
hTERT-HMEC; [9]
  percentage of EdU-negative: 4.84 ± 0.53%
hTERT-HMEC; [10]
  percentage of EdU-negative: 5.72 ± 0.27%

## MALQRTHSLLLLLLLTLLGLGLVQPSYGQDGMYQRFLRQHVHPEETGGSDRYCNLMMQRRKMTLYHCKRFNTFIHEDIWNIRSICSTTNIQCKNGKMNCHEGVVKVTDCRDTGSSRAPNCRYRAIASTRRVVIACEGNPQVPVHFDG
MCF7; [11]
  percentage of EdU-negative: 25 ± 2.2%
MCF7; [12]
  percentage of EdU-negative: 25.6 ± 4.4%
hTERT-HMEC; [11]
  percentage of EdU-negative: 4.98 ± 0.26%
hTERT-HMEC; [12]
  percentage of EdU-negative: 4.74 ± 0.71%
